42 substances from patent publication US20250154262A1 can be followed below.

For this assay, the target named is hFcγRIIIa-V158 (human) (UniProt P08637). Put plainly: SPR (Carterra LSA), protein AG capture.
Sequence of hFcγRIIIa-V158 (human) (P08637 17-208 F176V limits assumed): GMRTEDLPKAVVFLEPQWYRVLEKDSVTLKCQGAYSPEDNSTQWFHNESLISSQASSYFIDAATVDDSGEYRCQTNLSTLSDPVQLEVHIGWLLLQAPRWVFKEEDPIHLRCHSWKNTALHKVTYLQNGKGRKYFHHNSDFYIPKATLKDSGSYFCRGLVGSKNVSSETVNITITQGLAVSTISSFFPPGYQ

The Kd is the free concentration of one partner at which half of the binding sites on the other are occupied at equilibrium, for simple one-to-one binding. Lower therefore signals higher affinity. With L314N_S267A_A330M_D376T (antibody), the Kd turned out to be 286 nM.
As a reminder, the koff is the first-order rate constant of dissociation. A high value points to fast dissociation. The kon is a measure of how fast the partners come together. Low values mean slower complex formation, high ones faster complex formation. In the case of H268D_L251W_L314V (antibody), the Fold-change relative to WT was 3.1 fold, the Kd worked out at 92.8 nM, the koff was 0.0231 s⁻¹ and the kon was 249000 M⁻¹ s⁻¹.
In the same order, the values of S267D_A330Y_L251W (antibody) are 2.6 fold, 111 nM, 0.0391 s⁻¹ and 353000 M⁻¹ s⁻¹.
In the same order, the values of S298A_A330Y_L251W_D376V (antibody) are 2.3 fold, 127 nM, 0.0308 s⁻¹ and 243000 M⁻¹ s⁻¹.
In the same order, the values of H268D_L251F_L314S (antibody) are 4 fold, 73 nM, 0.027 s⁻¹ and 370000 M⁻¹ s⁻¹.
H268D_L251Q_Y373W (antibody): the Fold-change relative to WT turned out to be 4.1 fold, the Kd came out at 70.2 nM, the off-rate (koff) was determined as 0.0292 s⁻¹ and the kon is 416000 M⁻¹ s⁻¹.
In the same order, the values of S267D_A330Y_Y373W (antibody) are 2.3 fold, 124 nM, 0.0371 s⁻¹ and 298000 M⁻¹ s⁻¹.
For H268D_A330Y_L251W_D376V (antibody), the Fold-change relative to WT was determined as 4.4 fold, the Kd is 66.2 nM, the koff came to 0.038 s⁻¹ and the kon is 574000 M⁻¹ s⁻¹.
In the same order, the values of H268D_L251Q_L314E (antibody) are 21.9 fold, 13.3 nM, 0.0152 s⁻¹ and 1.15e+06 M⁻¹ s⁻¹.
In the same order, the values of S298A_A330Y_L251W (antibody) are 3.2 fold, 90.4 nM, 0.038 s⁻¹ and 421000 M⁻¹ s⁻¹.
In the same order, the values of H268D_L251W_L314N (antibody) are 8.4 fold, 34.5 nM, 0.0223 s⁻¹ and 647000 M⁻¹ s⁻¹.
H268D_L251Q_L314G (antibody) returned a Fold-change relative to WT of 6.3 fold, a Kd of 45.9 nM, a koff of 0.0246 s⁻¹ and a kon of 536000 M⁻¹ s⁻¹.
The substance H268D_L251Q_Y373W_S298A (antibody) gave a Kd of 25.2 nM.
Substance H268D_L251W_L314M_Y373W (antibody) had a Fold-change relative to WT of 1.9 fold, a Kd of 151 nM, a koff of 0.065 s⁻¹ and a kon of 431000 M⁻¹ s⁻¹.
For the substance A330Y_S267A_D376V_S298A (antibody), the Kd turned out to be 67.9 nM.
As for S267D_A330Y_D376V (antibody), the Fold-change relative to WT is 2 fold, the dissociation constant (Kd) turned out to be 145 nM, the koff was determined as 0.0406 s⁻¹ and the kon amounted to 279000 M⁻¹ s⁻¹.
In the same order, the values of H268D_L314W_Y373W_A330M (antibody) are 7.6 fold, 38.4 nM, 0.0198 s⁻¹ and 516000 M⁻¹ s⁻¹.
The substance H268D_L251W_L314K (antibody) came in with a Fold-change relative to WT of 3.3 fold, a Kd of 87.8 nM, a dissociation rate constant (koff) of 0.0476 s⁻¹ and a kon of 542000 M⁻¹ s⁻¹.
In the same order, the values of H268D_L251F_L314W (antibody) are 1.8 fold, 163 nM, 0.0241 s⁻¹ and 148000 M⁻¹ s⁻¹.
S267D_A330Y_L314K (antibody) registered a Kd of 268 nM.
H268D_L251F_L314N (antibody) had a Fold-change relative to WT of 3.9 fold, a Kd of 74.9 nM, a koff of 0.0231 s⁻¹ and a kon of 309000 M⁻¹ s⁻¹.
As to S267D_A330Y_A339T (antibody), the Fold-change relative to WT came to 2.7 fold, the dissociation constant Kd came to 109 nM, the koff was 0.035 s⁻¹ and the kon amounted to 320000 M⁻¹ s⁻¹.
In the same order, the values of H268D_L251W_L314S (antibody) are 9.4 fold, 31.1 nM, 0.119 s⁻¹ and 3.83e+06 M⁻¹ s⁻¹.
In the same order, the values of H268D_L251F_L314M (antibody) are 3.3 fold, 88.3 nM, 0.025 s⁻¹ and 283000 M⁻¹ s⁻¹.
H268D_L251Q_L314M_Y373W (antibody) displayed a Kd of 72.8 nM.
Substance H268D_L251F_L314G (antibody) gave a Fold-change relative to WT of 4.4 fold, a Kd of 65.8 nM, a dissociation rate constant (koff) of 0.0253 s⁻¹ and a kon of 385000 M⁻¹ s⁻¹.
In turn, L251F_A339T_L314S_Y373W (antibody) came in with a Kd of 204 nM.
On to S267D_L314W_L251H_D376V (antibody), for which the Fold-change relative to WT was 2.3 fold, the Kd was determined as 124 nM, the koff was 0.036 s⁻¹ and the kon was determined as 290000 M⁻¹ s⁻¹.
H268D_L251W_A330Y_Y373W (antibody): the Fold-change relative to WT turned out to be 3.9 fold, the Kd is 74.6 nM, the koff is 0.044 s⁻¹ and the kon came to 590000 M⁻¹ s⁻¹.
In the same order, the values of H268D_L251W_S298A (antibody) are 6.3 fold, 46 nM, 0.0213 s⁻¹ and 463000 M⁻¹ s⁻¹.
In the same order, the values of H268D_A330Y_L251W (antibody) are 2 fold, 149 nM, 0.026 s⁻¹ and 174000 M⁻¹ s⁻¹.
In the same order, the values of H268D_A330Y_A339T_Y373W (antibody) are 4.4 fold, 66.3 nM, 0.019 s⁻¹ and 287000 M⁻¹ s⁻¹.
The substance S298A_A330Y_A339T (antibody) had a Kd of 58.4 nM.
Consider H268D_S267D_L251I_A339T (antibody), for which the Fold-change relative to WT came out at 4.8 fold, the Kd stood at 60.7 nM, the koff is 0.0212 s⁻¹ and the kon was determined as 348000 M⁻¹ s⁻¹.
In the same order, the values of H268D_L251F (antibody) are 3.9 fold, 73.9 nM, 0.0243 s⁻¹ and 328000 M⁻¹ s⁻¹.
In the same order, the values of H268D_L251W_S267D_Y373W (antibody) are 2.4 fold, 123 nM, 0.049 s⁻¹ and 397000 M⁻¹ s⁻¹.
In turn, L251F (antibody) showed a dissociation constant Kd of 104 nM.
On the same count and under the same terms, then H268E_L251Q_A339T_L314A (antibody), with 118 nM.
For S298A_A330Y_Y373W (antibody), the Fold-change relative to WT was determined as 1.2 fold, the Kd was 251 nM, the koff came out at 0.0344 s⁻¹ and the kon was determined as 137000 M⁻¹ s⁻¹.
In the same order, the values of H268D_L251W_L314M (antibody) are 1.5 fold, 188 nM, 0.0564 s⁻¹ and 300000 M⁻¹ s⁻¹.
For H268D_L314K_L251Q (antibody), the Kd came out at 133 nM.
For H268D_L251F_L314V (antibody), the Fold-change relative to WT worked out at 3.4 fold, the Kd was 84.4 nM, the koff amounted to 0.0225 s⁻¹ and the kon was determined as 267000 M⁻¹ s⁻¹.
